T1: PUF4 RNA-binding domain (Saccharomyces cerevisiae, UniProt P25339 537-888)
T1 sequence: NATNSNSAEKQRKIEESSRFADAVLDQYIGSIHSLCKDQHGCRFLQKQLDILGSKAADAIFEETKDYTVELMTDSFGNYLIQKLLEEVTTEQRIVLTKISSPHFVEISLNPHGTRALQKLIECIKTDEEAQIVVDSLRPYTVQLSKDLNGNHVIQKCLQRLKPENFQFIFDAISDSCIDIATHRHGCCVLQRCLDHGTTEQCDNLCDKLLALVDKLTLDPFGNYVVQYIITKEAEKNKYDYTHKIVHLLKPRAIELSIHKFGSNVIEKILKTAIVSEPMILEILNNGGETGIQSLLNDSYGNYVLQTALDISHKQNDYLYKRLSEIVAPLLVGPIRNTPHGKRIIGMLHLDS

B1: Id_iii_S4_P5E.8_K5.4_C5.3_H5.1_A5.2_F5.1_T5.2_[A12C] (ssRNA)
RNA: UUUGACAACUGAUCGUUCUUUCUUCUUGUAAUAUUAUCUUCUUUCUCGAUCAGUUGUCUUU

Target: T1, PUF4 RNA-binding domain
Test: Mg; RNA-MaP; 20 mM Na-HEPES pH 7.4, 30 mM KOAc, 0.75 mM MgCl2, 0.1% Tween-20, 5% glycerol, 0.1 mg/mL BSA, 2 mM DTT; 25 C; 0.0125-409.6 nM protein
Details: tags: N-His6-TEV cleaved; C-SNAP kept, Cy3B-labelled; label: tethered on chip by stalled RNA polymerase

Row | Binder | Kd
1 | B1 | 2.73 nM
2 | UCUCUUCUUUGUAUAUAUAUCUCUU (ssRNA) [Ie_S1_P3E.2_K3.1_C3.2_[+-2T]_H3.1_A3.1_F3.1_T3.2] | 4.55 nM
3 | UCUCUUCCCUUGUAUAUAUAUCUCUU (ssRNA) [Ie_S1_P3E.2_K3.1_C3.2_[+-2CC]_H3.1_A3.1_F3.1_T3.2] | 7.06 nM
4 | UCUCUUCUCUUGUAUAUAUAUCUCUU (ssRNA) [Ie_S1_P3E.2_K3.1_C3.2_[+-2TC]_H3.1_A3.1_F3.1_T3.2] | 4.74 nM
5 | UCUCUUCUUUUGUAUAUAUAUCUCUU (ssRNA) [Ie_S1_P3E.2_K3.1_C3.2_H3.1_[+1TT]_A3.1_F3.1_T3.2] | 5.47 nM
6 | UCUCUUCCUCUUGUAUAUAUAUCUCUU (ssRNA) [Ie_S1_P3E.2_K3.1_C3.2_[+-2CTC]_H3.1_A3.1_F3.1_T3.2] | 7.17 nM
7 | UCUCUUCUCCUUGUAUAUAUAUCUCUU (ssRNA) [Ie_S1_P3E.2_K3.1_C3.2_[+-2TCC]_H3.1_A3.1_F3.1_T3.2] | 4.39 nM
8 | UCUCUUCUUCUUGUAUAUAUAUCUCUU (ssRNA) [Ie_S1_P3E.2_K3.1_C3.2_[+-1TCT]_H3.1_A3.1_F3.1_T3.2] | 4.28 nM
9 | UCUCUUUGUACUUUUAUCUCUU (ssRNA) [Ib_S1_P5E.1_K5.1_C5.1_H5.1_A5.1_[T5C]_[A7T]_F5.1_T5.1] | 3.92 nM
10 | UCUCUUCCUUUUGUAUAUAUAUCUCUU (ssRNA) [Ie_S1_P3E.2_K3.1_C3.2_[+-2CTT]_H3.1_A3.1_F3.1_T3.2] | 5.14 nM
11 | UCUCUUCUUUUUGUAUAUAUAUCUCUU (ssRNA) [Ie_S1_P3E.2_K3.1_C3.2_H3.1_[+1TTT]_A3.1_F3.1_T3.2] | 5.49 nM
12 | UCUCUUCCUCUUUGUAUAUAUAUCUCUU (ssRNA) [Ie_S1_P3E.2_K3.1_C3.2_[+-2CTCT]_H3.1_A3.1_F3.1_T3.2] | 4.97 nM
13 | UCUCUUCUCUCUUGUAUAUAUAUCUCUU (ssRNA) [Ie_S1_P3E.2_K3.1_C3.2_[+-2TCTC]_H3.1_A3.1_F3.1_T3.2] | 4.58 nM
14 | UCUCUUCCCUCUUGUAUAUAUAUCUCUU (ssRNA) [Ie_S1_P3E.2_K3.1_C3.2_[+-2CCTC]_H3.1_A3.1_F3.1_T3.2] | 7.14 nM
15 | UCUCUUCUUCCUUGUAUAUAUAUCUCUU (ssRNA) [Ie_S1_P3E.2_K3.1_C3.2_[+-2TTCC]_H3.1_A3.1_F3.1_T3.2] | 6.09 nM
16 | UCUCUUCCCCUUUGUAUAUAUAUCUCUU (ssRNA) [Ie_S1_P3E.2_K3.1_C3.2_[+-2CCCT]_H3.1_A3.1_F3.1_T3.2] | 3.73 nM
17 | UCUCUUCCUCUCUUGUAUAUAUAUCUCUU (ssRNA) [Ie_S1_P3E.2_K3.1_C3.2_[+-2CTCTC]_H3.1_A3.1_F3.1_T3.2] | 7.46 nM
18 | UCUCUUCUCUCUUUGUAUAUAUAUCUCUU (ssRNA) [Ie_S1_P3E.2_K3.1_C3.2_[+-2TCTCT]_H3.1_A3.1_F3.1_T3.2] | 4.28 nM
19 | UCUCUUCUUCCUUUGUAUAUAUAUCUCUU (ssRNA) [Ie_S1_P3E.2_K3.1_C3.2_[+-2TTCCT]_H3.1_A3.1_F3.1_T3.2] | 6.01 nM
20 | UCUCUUUGUAAUGUUAUCUCUU (ssRNA) [Ib_S1_P5E.1_K5.1_C5.1_H5.1_A5.1_[T5A]_[A7G]_F5.1_T5.1] | 12.7 nM
21 | UCUCUUCCCCUUUUGUAUAUAUAUCUCUU (ssRNA) [Ie_S1_P3E.2_K3.1_C3.2_[+-2CCCTT]_H3.1_A3.1_F3.1_T3.2] | 5.86 nM

Row | Binder | Kd
22 | UCUCUUCUCCUGUAUAUAUAUCUCUU (ssRNA) [Ie_S1_P3E.2_K3.1_C3.2_[+-1CC]_H3.1_A3.1_F3.1_T3.2] | 4.99 nM
23 | UCUCUUCUUCUGUAUAUAUAUCUCUU (ssRNA) [Ie_S1_P3E.2_K3.1_C3.2_H3.1_[+1CT]_A3.1_F3.1_T3.2] | 4.75 nM
24 | UCUCUUCUCUCUGUAUAUAUAUCUCUU (ssRNA) [Ie_S1_P3E.2_K3.1_C3.2_[+-1CTC]_H3.1_A3.1_F3.1_T3.2] | 4.2 nM
25 | UCUCUUCUUCCUGUAUAUAUAUCUCUU (ssRNA) [Ie_S1_P3E.2_K3.1_C3.2_H3.1_[+1CCT]_A3.1_F3.1_T3.2] | 5.41 nM
26 | UCUCUUCUUUCUGUAUAUAUAUCUCUU (ssRNA) [Ie_S1_P3E.2_K3.1_C3.2_H3.1_[+1TCT]_A3.1_F3.1_T3.2] | 3.95 nM
27 | UCUCUUCUUCUCUGUAUAUAUAUCUCUU (ssRNA) [Ie_S1_P3E.2_K3.1_C3.2_H3.1_[+1CTCT]_A3.1_F3.1_T3.2] | 4.16 nM
28 | UCUCUUCUCCCUUGUAUAUAUAUCUCUU (ssRNA) [Ie_S1_P3E.2_K3.1_C3.2_[+-1CCCT]_H3.1_A3.1_F3.1_T3.2] | 2.61 nM
29 | UCUCUUCUCUCUCUGUAUAUAUAUCUCUU (ssRNA) [Ie_S1_P3E.2_K3.1_C3.2_[+-1CTCTC]_H3.1_A3.1_F3.1_T3.2] | 3.89 nM
30 | UCUCUUCUUCUCUUGUAUAUAUAUCUCUU (ssRNA) [Ie_S1_P3E.2_K3.1_C3.2_[+-1TCTCT]_H3.1_A3.1_F3.1_T3.2] | 5.94 nM
31 | UCUCUUUGUAAUCUUAUCUCUU (ssRNA) [Ib_S1_P5E.1_K5.1_C5.1_H5.1_A5.1_[T5A]_[A7C]_F5.1_T5.1] | 12.1 nM
32 | UCUCUUCUCCUCUUGUAUAUAUAUCUCUU (ssRNA) [Ie_S1_P3E.2_K3.1_C3.2_[+-1CCTCT]_H3.1_A3.1_F3.1_T3.2] | 3.91 nM
33 | UCUCUUCUUUCCUUGUAUAUAUAUCUCUU (ssRNA) [Ie_S1_P3E.2_K3.1_C3.2_[+-1TTCCT]_H3.1_A3.1_F3.1_T3.2] | 4.2 nM
34 | UCUCUUCUCCCUUUGUAUAUAUAUCUCUU (ssRNA) [Ie_S1_P3E.2_K3.1_C3.2_[+-1CCCTT]_H3.1_A3.1_F3.1_T3.2] | 6.24 nM
35 | UCUCUUCUUCCGUAUAUAUAUCUCUU (ssRNA) [Ie_S1_P3E.2_K3.1_C3.2_H3.1_[+1CC]_A3.1_F3.1_T3.2] | 1270 nM
36 | UCUCUUCUUCUCGUAUAUAUAUCUCUU (ssRNA) [Ie_S1_P3E.2_K3.1_C3.2_H3.1_[+1CTC]_A3.1_F3.1_T3.2] | 449 nM
37 | UCUCUUCUUUCCGUAUAUAUAUCUCUU (ssRNA) [Ie_S1_P3E.2_K3.1_C3.2_H3.1_[+1TCC]_A3.1_F3.1_T3.2] | 534 nM
38 | UCUCUUCUUUCUCGUAUAUAUAUCUCUU (ssRNA) [Ie_S1_P3E.2_K3.1_C3.2_H3.1_[+1TCTC]_A3.1_F3.1_T3.2] | 261 nM
39 | UCUCUUCUUCCUCGUAUAUAUAUCUCUU (ssRNA) [Ie_S1_P3E.2_K3.1_C3.2_H3.1_[+1CCTC]_A3.1_F3.1_T3.2] | 475 nM
40 | UCUCUUCUUCCCUGUAUAUAUAUCUCUU (ssRNA) [Ie_S1_P3E.2_K3.1_C3.2_H3.1_[+1CCCT]_A3.1_F3.1_T3.2] | 4.02 nM
41 | UCUCUUCUUCUCUCGUAUAUAUAUCUCUU (ssRNA) [Ie_S1_P3E.2_K3.1_C3.2_H3.1_[+1CTCTC]_A3.1_F3.1_T3.2] | 512 nM
42 | UCUCUUUGUAAUUUUAUCUCUU (ssRNA) [Ib_S1_P5E.1_K5.1_C5.1_H5.1_A5.1_[T5A]_[A7T]_F5.1_T5.1] | 5.31 nM

Row | Binder | Kd
43 | UCUCUUCUUUCUCUGUAUAUAUAUCUCUU (ssRNA) [Ie_S1_P3E.2_K3.1_C3.2_H3.1_[+1TCTCT]_A3.1_F3.1_T3.2] | 4.87 nM
44 | UCUCUUCUUCCUCUGUAUAUAUAUCUCUU (ssRNA) [Ie_S1_P3E.2_K3.1_C3.2_H3.1_[+1CCTCT]_A3.1_F3.1_T3.2] | 5.08 nM
45 | UCUCUUCUUUUCCUGUAUAUAUAUCUCUU (ssRNA) [Ie_S1_P3E.2_K3.1_C3.2_H3.1_[+1TTCCT]_A3.1_F3.1_T3.2] | 5.37 nM
46 | UCUCUUCUUGUUAUAUAUAUCUCUU (ssRNA) [Ie_S1_P3E.2_K3.1_C3.2_H3.1_[+2T]_A3.1_F3.1_T3.2] | 29.7 nM
47 | UCUCUUCUUGCCUAUAUAUAUCUCUU (ssRNA) [Ie_S1_P3E.2_K3.1_C3.2_H3.1_[+2CC]_A3.1_F3.1_T3.2] | 1170 nM
48 | UCUCUUCUUGUCUAUAUAUAUCUCUU (ssRNA) [Ie_S1_P3E.2_K3.1_C3.2_H3.1_[+2TC]_A3.1_F3.1_T3.2] | 844 nM
49 | UCUCUUCUUGCCUUAUAUAUAUCUCUU (ssRNA) [Ie_S1_P3E.2_K3.1_C3.2_H3.1_[+2CCT]_A3.1_F3.1_T3.2] | 1510 nM
50 | UCUCUUCUUGUCCUAUAUAUAUCUCUU (ssRNA) [Ie_S1_P3E.2_K3.1_C3.2_H3.1_[+2TCC]_A3.1_F3.1_T3.2] | 62.9 nM
51 | UCUCUUCUUGUUCUAUAUAUAUCUCUU (ssRNA) [Ie_S1_P3E.2_K3.1_C3.2_H3.1_[+3TCT]_A3.1_F3.1_T3.2] | 53.2 nM
52 | UCUCUUCUUGUCUUAUAUAUAUCUCUU (ssRNA) [Ie_S1_P3E.2_K3.1_C3.2_H3.1_[+3CTT]_A3.1_F3.1_T3.2] | 95.5 nM
53 | UCUCUUUGUAUGGUUAUCUCUU (ssRNA) [Ib_S1_P5E.1_K5.1_C5.1_H5.1_A5.1_[T6G]_[A7G]_F5.1_T5.1] | 37.1 nM
54 | UCUCUUCUUGUUUUAUAUAUAUCUCUU (ssRNA) [Ie_S1_P3E.2_K3.1_C3.2_H3.1_[+2TTT]_A3.1_F3.1_T3.2] | 27.9 nM
55 | UCUCUUCUUGCUCUUAUAUAUAUCUCUU (ssRNA) [Ie_S1_P3E.2_K3.1_C3.2_H3.1_[+2CTCT]_A3.1_F3.1_T3.2] | 824 nM
56 | UCUCUUCUUGUCUCUAUAUAUAUCUCUU (ssRNA) [Ie_S1_P3E.2_K3.1_C3.2_H3.1_[+2TCTC]_A3.1_F3.1_T3.2] | 456 nM
57 | UCUCUUCUUGUUCCUAUAUAUAUCUCUU (ssRNA) [Ie_S1_P3E.2_K3.1_C3.2_H3.1_[+2TTCC]_A3.1_F3.1_T3.2] | 104 nM
58 | UCUCUUCUUGCCCUUAUAUAUAUCUCUU (ssRNA) [Ie_S1_P3E.2_K3.1_C3.2_H3.1_[+2CCCT]_A3.1_F3.1_T3.2] | 1190 nM
59 | UCUCUUCUUGCUCUCUAUAUAUAUCUCUU (ssRNA) [Ie_S1_P3E.2_K3.1_C3.2_H3.1_[+2CTCTC]_A3.1_F3.1_T3.2] | 1140 nM
60 | UCUCUUCUUGCCUCUUAUAUAUAUCUCUU (ssRNA) [Ie_S1_P3E.2_K3.1_C3.2_H3.1_[+2CCTCT]_A3.1_F3.1_T3.2] | 1680 nM
61 | UCUCUUCUUGUCAUAUAUAUCUCUU (ssRNA) [Ie_S1_P3E.2_K3.1_C3.2_H3.1_[+3C]_A3.1_F3.1_T3.2] | 67 nM

Source: article PMC9352680, “A comprehensive thermodynamic model for RNA binding by the Saccharomyces cerevisiae Pumilio protein PUF4”
